The data set relates to MS2 coat protein. The data set is described as follows: apparent KD of MS2 coat protein; designed switch direction (-1 OFF switch, 1 ON switch): -1; higher = weaker reporter binding. The gist of the method: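 Designed RNA switches with common flanks were transcribed on Illumina chips by stalled E. coli RNA polymerase and titrated with SNAP-549-labelled MS2 coat protein, from 0.7 or 1.5 nM doubling to 3 µM, in Tris-HCl pH 7.5 buffer with KCl, MgCl2, BSA, DTT, tRNA and Tween-20. Steps lasted 0.8–1.5 h (lowest) to 10–20 min (highest). Titrations ran without input, with 200 uM small-molecule ligand, or with an oligonucleotide input. Normalised cluster fluorescence was curve-fitted, and apparent KD is the per-design median over clusters.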

Where [1] appears, read: input ligand: microRNA oligo, concentration not stated.
[2] abbreviates: Eterna round: R95, input ligand: FMN 200 uM.
Setting [3] is: Eterna round: R95, input ligand: microRNA oligo, concentration not stated.
[4] abbreviates: Eterna round: R95, input ligand: none.

With “ACAUGAGGAUCACCCAUGUUUGGCUGGUUUUCUCCGGCUGUCGAGGAUAUAGUACGGUAUCCGCGCUAGAAGGUGAGGGUCGGC [Aenatbe mod 2] (Eterna round: R96, puzzle: Exclusion NG 3)”, the “apparent KD of MS2 coat protein” value reads like this: (input ligand: FMN 200 uM) 17.1 nM; under setting [1], 12.2 nM; (input ligand: none) 19 nM.
“ACAUGAGGAUCACCCAUGUUUUUUGGGUACUUUUGUUUCUGCAAGGAUAUGCAUUAUUUAUAUACGCAGAAGGUGCAUUACUUC [JR_ExcNG3_Sub061] (Eterna round: R96, puzzle: Exclusion NG 3)”: the “apparent KD of MS2 coat protein” value under setting [1] is 501 nM.
As to “ACAUGCCGCGCAGGAUAUGGGACACAUGAGGAUCACCCAUGUGGUUUCAUGUCUAACCAAGCGUCCCAGAAGGGCGUGAACAUG [Ex NG2 #29] (Eterna round: R96, puzzle: Exclusion NG 2)”, the “apparent KD of MS2 coat protein” value (input ligand: FMN 200 uM) came out at 30.9 nM, the “apparent KD of MS2 coat protein” value under setting [1] was 16.1 nM and the “apparent KD of MS2 coat protein” value (input ligand: none) amounted to 25.2 nM.
Consider “ACAUGGAAGCAGGAUAUGCUUGUAUAAUUGAAAGCAGAAGGGCUAACAUGAGGAUCACCCAUGUAAGAGGUCUA [JR_E6_Sub060] (puzzle: Exclusion 6)”, for which the “apparent KD of MS2 coat protein” value under setting [2] was found to be 91 nM, the “apparent KD of MS2 coat protein” value under setting [3] was found to be 21 nM and the “apparent KD of MS2 coat protein” value under setting [4] was found to be 24.7 nM.
With “ACAUGGAAGCAGGAUAUGCUUGUAUAAUUGUUUGCAGAAGGGCUAACAUGAGGAUCACCCAUGUAAGAGGUCUA [JR_E6_Sub061] (puzzle: Exclusion 6)”, the “apparent KD of MS2 coat protein” value under setting [3] was determined as 15.9 nM.
Consider “ACAUGUAAUGCAGGAUAUGGGACACAUGAGGAUCACCCAUGUGACCAGAGGUAAUGCUAAGAGUCUCAGAAGGGUAUGUACAUG [Ex NG2 #49] (Eterna round: R96, puzzle: Exclusion NG 2)”, for which the “apparent KD of MS2 coat protein” value is, setting by setting: (input ligand: FMN 200 uM) 22.5 nM; under setting [1], 14.5 nM; (input ligand: none) 19 nM.
For the sequence “ACAUGUCAUCGAGGAUAUUGCACACAUGAGGAUCACCCAUGUAUACGGUUGCUCUUGCGUGAGUUCGAGAAGGCGAUGUACAUU [Ex NG2 #86] (Eterna round: R96, puzzle: Exclusion NG 2)”, the “apparent KD of MS2 coat protein” value (input ligand: FMN 200 uM) turned out to be 109 nM, the “apparent KD of MS2 coat protein” value under setting [1] came to 198 nM and the “apparent KD of MS2 coat protein” value (input ligand: none) was determined as 313 nM.
The matching figures for “ACAUGUCAUUGAGGAUAUUGCAAACAUGAGGAUCACCCAUGUAUACGGAUGCUCUUACGUGGGUUCGAGAAGGCGAUGUACAUU [Ex NG2 #92] (Eterna round: R96, puzzle: Exclusion NG 2)”: 819 nM, 345 nM and 429 nM.
The matching figures for “ACAUGUCAUUGAGGAUAUUGCACACAUGAGGAUCACCCAUGUAUACGGAUGCUCUUACGUGAGUUCGAGAAGGCGAUGUACAUU [Ex NG2 #89] (Eterna round: R96, puzzle: Exclusion NG 2)”: 290 nM, 121 nM and 160 nM.
For “ACAUGUUGCGCAGGAUAUGGGACACAUGAGGAUCACCCAUGUGGUUACAUGUCUUACCAAGCGUCCCAGAAGGGCGUGAACAUG [Ex NG2 #31] (Eterna round: R96, puzzle: Exclusion NG 2)”, the “apparent KD of MS2 coat protein” value by setting is: (input ligand: FMN 200 uM) 28.6 nM; under setting [1], 18.4 nM; (input ligand: none) 22.1 nM.
With “ACAUUUGUAGAGGAUAUCAAGCCCAGGCUCCGUUGAGAAGGUUACACAUGAGGAUCACCCAUGUCCUCCUUACC [Eternabot (L1) Solution 4] (Eterna round: R97, puzzle: Exclusion 6)”, the “apparent KD of MS2 coat protein” value by setting is: (input ligand: FMN 200 uM) 168 nM; (input ligand: none) 162 nM.
“ACCAUGUCAGGAUAUGCCCGUGUUCGAUCCGAGAAACACGAGCAGAAGGGACAUGAGGAUCACCCAUGUCCAAG [Eternabot (Original) Solution 1] (Eterna round: R97, puzzle: Exclusion 4)”: the “apparent KD of MS2 coat protein” value by setting is: (input ligand: FMN 200 uM) 45.2 nM; (input ligand: none) 16.2 nM.
With “ACCCAACAUGAGGAUCACCCAUGUCAGGAUAUCCAUCACUAUCACGAAAGGAUAGGAUGGAGAAGGGACAGAGG [ChP 04-04-2015 #3] (puzzle: Exclusion 1)”, the “apparent KD of MS2 coat protein” value is, setting by setting: under setting [2], 325 nM; under setting [3], 99.8 nM; under setting [4], 158 nM.

(Values after the supplement of paper PMC9170038.)
